The values that follow come from patent US20030130484A1, “Inhibitors and disassemblers of fibrillogenesis” (priority 2001, published 2003).

The assay addresses human Aβ1-40 peptide (human). Nature of the assay: cell-based or functional assay.

Chain of human Aβ1-40 peptide (human) (peptide, as listed by the source): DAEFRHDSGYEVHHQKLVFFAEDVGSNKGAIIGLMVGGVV

For Ac-Aβ16-22 (Peptide VI), the IC50 of inhibition of Aβ40 fibrillogenesis (inhibitor:Aβ ratio) was 10, the Inhibition of Fibrillogenesis IC50 (thioflavin fluorescence) (inhibitor:Aβ40 molar ratio) worked out at 8.4, the Inhibition of Fibrillogenesis ICmax turned out to be 100% and the Inhibition of Fibrilogenesis IC50 (µM) was found to be 8.4 µM. The substance also showed an Inhibition of Fibrilogenesis ICmax (%) of 100%.

Substance Anth-Aβ16-20 (peptide) came in with an Inhibition of Fibrilogenesis IC50 (µM) of 0.3 µM and an Inhibition of Fibrilogenesis ICmax (%) of 100%.

For the substance Aβ16-22 (peptide), the Inhibition of Fibrillogenesis IC50 (thioflavin fluorescence) (inhibitor:Aβ40 molar ratio) came out at 1.1, the Inhibition of Fibrillogenesis ICmax was 23%, the Inhibition of Fibrilogenesis IC50 (µM) worked out at 1.1 µM and the Inhibition of Fibrilogenesis ICmax (%) is 23%. Moreover, the percent inhibition of fibrillogenesis at concentrations at which Aβ16-22m inhibited completely was in the range of 10 to 20%.
